Results reported in the supplement of paper PMC9233669.
Variants at the floor of the assay were thinned out.

How the values were obtained:
biotinyl-Met-oxazolone = experiment: self-aminoacylation, catalytic enhancement (BMO) (fold over background); higher = more active; k-Seq, kA / k0A0; sequences stand for … in GGGAAUGGAUCCACAUCUACGAAUUC…UUCACUGCAGACUUGACGAAGCUG
Procedure, shortened: (§1)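 Mutagenized RNA pools with a 21-nt variable region (0.43 μM) reacted with each biotinyl-aminoacyl-oxazolone at 2–1250 μM. Reactions ran in 50 μL HEPES/NaCl/KCl/MgCl2/CaCl2 buffer with 5% acetonitrile, pH 6.9–7.0, for 90 minutes at room temperature. Streptavidin-captured RNA was quantified by triplicate qPCR and Illumina sequencing, and per-sequence fraction reacted was fit to a pseudo-first-order model with 1000 bootstraps. Catalytic enhancement is median kA divided by the uncatalyzed rate, the low-activity peak of a bimodal Gaussian fit.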

biotinyl-Trp-oxazolone = experiment: self-aminoacylation, catalytic enhancement (BWO) (fold over background); higher = more active; k-Seq, kA / k0A0; sequences stand for … in GGGAAUGGAUCCACAUCUACGAAUUC…UUCACUGCAGACUUGACGAAGCUG
Procedure, shortened: as §1

biotinyl-Ile-oxazolone = experiment: self-aminoacylation, catalytic enhancement (BIO) (fold over background); higher = more active; k-Seq, kA / k0A0; sequences stand for … in GGGAAUGGAUCCACAUCUACGAAUUC…UUCACUGCAGACUUGACGAAGCUG
Procedure, shortened: as §1

biotinyl-Leu-oxazolone = experiment: self-aminoacylation, catalytic enhancement (BLO) (fold over background); higher = more active; k-Seq, kA / k0A0; sequences stand for … in GGGAAUGGAUCCACAUCUACGAAUUC…UUCACUGCAGACUUGACGAAGCUG
Procedure, shortened: as §1

biotinyl-Val-oxazolone = experiment: self-aminoacylation, catalytic enhancement (BVO) (fold over background); higher = more active; k-Seq, kA / k0A0; sequences stand for … in GGGAAUGGAUCCACAUCUACGAAUUC…UUCACUGCAGACUUGACGAAGCUG
Procedure, shortened: as §1

biotinyl-Phe-oxazolone = experiment: self-aminoacylation, catalytic enhancement (BFO) (fold over background); higher = more active; k-Seq, kA / k0A0; sequences stand for … in GGGAAUGGAUCCACAUCUACGAAUUC…UUCACUGCAGACUUGACGAAGCUG
Procedure, shortened: as §1

“CCACACUUCAAGCAAGCAGUC [Fam1B.1 aminoacylation ribozyme variant]” showed a self-aminoacylation (biotinyl-Met-oxazolone) of 0.645, a self-aminoacylation (biotinyl-Trp-oxazolone) of 0.475 and a self-aminoacylation (biotinyl-Ile-oxazolone) of 0.721. The self-aminoacylation (biotinyl-Leu-oxazolone) was 0.861, the self-aminoacylation (biotinyl-Val-oxazolone) was 0.857 and the self-aminoacylation (biotinyl-Phe-oxazolone) was 0.916.

“CUACUUGAAACAAUCGGUUUG [Fam1A.1 aminoacylation ribozyme variant]” showed a self-aminoacylation (biotinyl-Met-oxazolone) of 0.938, a self-aminoacylation (biotinyl-Trp-oxazolone) of 0.944 and a self-aminoacylation (biotinyl-Ile-oxazolone) of 0.907. For the same sequence, the self-aminoacylation (biotinyl-Leu-oxazolone) was 0.89, the self-aminoacylation (biotinyl-Val-oxazolone) was 0.77 and the self-aminoacylation (biotinyl-Phe-oxazolone) was 0.458.

“CUACUUCAAACAACCGGUAUG [Fam1A.1 aminoacylation ribozyme variant]” gave a self-aminoacylation (biotinyl-Met-oxazolone) of 0.707, a self-aminoacylation (biotinyl-Trp-oxazolone) of 0.873 and a self-aminoacylation (biotinyl-Ile-oxazolone) of 0.785. For the same sequence, the self-aminoacylation (biotinyl-Leu-oxazolone) was 0.803, the self-aminoacylation (biotinyl-Val-oxazolone) was 0.805 and the self-aminoacylation (biotinyl-Phe-oxazolone) was 0.739.

Sequence “GUUCACCUAGUUCAUCGGGUG [Fam2.2 aminoacylation ribozyme variant]” has a self-aminoacylation (biotinyl-Met-oxazolone) of 2.66, a self-aminoacylation (biotinyl-Trp-oxazolone) of 4.15 and a self-aminoacylation (biotinyl-Ile-oxazolone) of 2.79. For the same sequence, the self-aminoacylation (biotinyl-Leu-oxazolone) was 2.37, the self-aminoacylation (biotinyl-Val-oxazolone) was 2.9 and the self-aminoacylation (biotinyl-Phe-oxazolone) was 15.4.

In the case of “AAUUUUGCUAAUAGUAGCAAG [Fam3.1 aminoacylation ribozyme variant]”, the self-aminoacylation (biotinyl-Met-oxazolone) is reported as 1.31, the self-aminoacylation (biotinyl-Trp-oxazolone) is reported as 0.996 and the self-aminoacylation (biotinyl-Ile-oxazolone) is reported as 1.41. The self-aminoacylation (biotinyl-Leu-oxazolone) was 1.75, the self-aminoacylation (biotinyl-Val-oxazolone) was 1.37 and the self-aminoacylation (biotinyl-Phe-oxazolone) was 1.11.

With “CUUGUUCAAACAAUCGGUCUG [Fam1A.1 aminoacylation ribozyme variant]” the self-aminoacylation (biotinyl-Met-oxazolone) was 0.957, the self-aminoacylation (biotinyl-Trp-oxazolone) was 3.07 and the self-aminoacylation (biotinyl-Ile-oxazolone) was 1.07. The self-aminoacylation (biotinyl-Leu-oxazolone) was 1.18, the self-aminoacylation (biotinyl-Val-oxazolone) was 0.967 and the self-aminoacylation (biotinyl-Phe-oxazolone) was 5.84.

Sequence “AUUACCCUCGUCAGCGAGUGA [Fam2.1 aminoacylation ribozyme variant]” has a self-aminoacylation (biotinyl-Met-oxazolone) of 3.5, a self-aminoacylation (biotinyl-Trp-oxazolone) of 4.57 and a self-aminoacylation (biotinyl-Ile-oxazolone) of 2.39. For the same sequence, the self-aminoacylation (biotinyl-Leu-oxazolone) was 4.33, the self-aminoacylation (biotinyl-Val-oxazolone) was 2.58 and the self-aminoacylation (biotinyl-Phe-oxazolone) was 9.66.

“CCACCCUUGAAGCAAUCGGUC [Fam1B.1 aminoacylation ribozyme variant]” gave a self-aminoacylation (biotinyl-Met-oxazolone) of 0.972, a self-aminoacylation (biotinyl-Trp-oxazolone) of 1.34 and a self-aminoacylation (biotinyl-Ile-oxazolone) of 1. The self-aminoacylation (biotinyl-Leu-oxazolone) was 1.12, the self-aminoacylation (biotinyl-Val-oxazolone) was 1.74 and the self-aminoacylation (biotinyl-Phe-oxazolone) was 0.764.

“AAGUUUGCUAAUAGUCUGAAG [Fam3.1 aminoacylation ribozyme variant]” gave a self-aminoacylation (biotinyl-Met-oxazolone) of 0.971, a self-aminoacylation (biotinyl-Trp-oxazolone) of 1.34 and a self-aminoacylation (biotinyl-Ile-oxazolone) of 1.01. The self-aminoacylation (biotinyl-Leu-oxazolone) was 0.996, the self-aminoacylation (biotinyl-Val-oxazolone) was 1.07 and the self-aminoacylation (biotinyl-Phe-oxazolone) was 3.77.

Work on “CUACUUCAAACAAUAGGUCUU [Fam1A.1 aminoacylation ribozyme variant]” yielded a self-aminoacylation (biotinyl-Met-oxazolone) of 0.75, a self-aminoacylation (biotinyl-Trp-oxazolone) of 0.538 and a self-aminoacylation (biotinyl-Ile-oxazolone) of 0.947. For the same sequence, the self-aminoacylation (biotinyl-Leu-oxazolone) was 0.827, the self-aminoacylation (biotinyl-Val-oxazolone) was 0.828 and the self-aminoacylation (biotinyl-Phe-oxazolone) was 0.985.

In the case of “CCACACUUCAGGCAAUCGUUC [Fam1B.1 aminoacylation ribozyme variant]”, the self-aminoacylation (biotinyl-Met-oxazolone) is reported as 0.618, the self-aminoacylation (biotinyl-Trp-oxazolone) is reported as 0.422 and the self-aminoacylation (biotinyl-Ile-oxazolone) is reported as 0.704. The self-aminoacylation (biotinyl-Leu-oxazolone) was 0.585, the self-aminoacylation (biotinyl-Val-oxazolone) was 0.792 and the self-aminoacylation (biotinyl-Phe-oxazolone) was 0.772.

With “AUACACCUAGGUCAGCGGGUG [Fam2.2 aminoacylation ribozyme variant]” the self-aminoacylation (biotinyl-Met-oxazolone) was 3.8, the self-aminoacylation (biotinyl-Trp-oxazolone) was 3.08 and the self-aminoacylation (biotinyl-Ile-oxazolone) was 2.29. The self-aminoacylation (biotinyl-Leu-oxazolone) was 3.49, the self-aminoacylation (biotinyl-Val-oxazolone) was 2.15 and the self-aminoacylation (biotinyl-Phe-oxazolone) was 15.5.

“AUUACCCUGGUCAACAAGUGA [Fam2.1 aminoacylation ribozyme variant]” was tested, and the self-aminoacylation (biotinyl-Met-oxazolone) was 7.83, the self-aminoacylation (biotinyl-Trp-oxazolone) was 8.34 and the self-aminoacylation (biotinyl-Ile-oxazolone) was 3.48. The self-aminoacylation (biotinyl-Leu-oxazolone) was 6.6, the self-aminoacylation (biotinyl-Val-oxazolone) was 3.85 and the self-aminoacylation (biotinyl-Phe-oxazolone) was 23.2.

Work on “AUUCACCUAGGUUGUCGGGUG [Fam2.2 aminoacylation ribozyme variant]” yielded a self-aminoacylation (biotinyl-Met-oxazolone) of 4.89, a self-aminoacylation (biotinyl-Trp-oxazolone) of 4.65 and a self-aminoacylation (biotinyl-Ile-oxazolone) of 3.53. It also gave a self-aminoacylation (biotinyl-Leu-oxazolone) of 5.86, a self-aminoacylation (biotinyl-Val-oxazolone) of 3.2 and a self-aminoacylation (biotinyl-Phe-oxazolone) of 27.3.

With “AUCGACCUAGGUCAUCGGGUG [Fam2.2 aminoacylation ribozyme variant]” the self-aminoacylation (biotinyl-Met-oxazolone) was 5.83, the self-aminoacylation (biotinyl-Trp-oxazolone) was 6.33 and the self-aminoacylation (biotinyl-Ile-oxazolone) was 4.48. The self-aminoacylation (biotinyl-Leu-oxazolone) was 6.35, the self-aminoacylation (biotinyl-Val-oxazolone) was 4.44 and the self-aminoacylation (biotinyl-Phe-oxazolone) was 8.6.

“CUACUUCAGACAAUCGGUCCG [Fam1A.1 aminoacylation ribozyme variant]” showed a self-aminoacylation (biotinyl-Met-oxazolone) of 1, a self-aminoacylation (biotinyl-Trp-oxazolone) of 1.38 and a self-aminoacylation (biotinyl-Ile-oxazolone) of 0.811. The self-aminoacylation (biotinyl-Leu-oxazolone) was 1.01, the self-aminoacylation (biotinyl-Val-oxazolone) was 0.695 and the self-aminoacylation (biotinyl-Phe-oxazolone) was 0.81.

“CCACACUUCAAGCACUCGGUG [Fam1B.1 aminoacylation ribozyme variant]” was tested, and the self-aminoacylation (biotinyl-Met-oxazolone) was 3.52, the self-aminoacylation (biotinyl-Trp-oxazolone) was 3.63 and the self-aminoacylation (biotinyl-Ile-oxazolone) was 2.92. It also gave a self-aminoacylation (biotinyl-Leu-oxazolone) of 4.22, a self-aminoacylation (biotinyl-Val-oxazolone) of 3.16 and a self-aminoacylation (biotinyl-Phe-oxazolone) of 22.4.

Work on “CUUCUUCAAACAAUCGGUCUC [Fam1A.1 aminoacylation ribozyme variant]” yielded a self-aminoacylation (biotinyl-Met-oxazolone) of 0.773, a self-aminoacylation (biotinyl-Trp-oxazolone) of 13.6 and a self-aminoacylation (biotinyl-Ile-oxazolone) of 0.814. For the same sequence, the self-aminoacylation (biotinyl-Leu-oxazolone) was 1.08, the self-aminoacylation (biotinyl-Val-oxazolone) was 0.874 and the self-aminoacylation (biotinyl-Phe-oxazolone) was 28.6.

With “AAGUGUGCGAAUAGUCGCAAG [Fam3.1 aminoacylation ribozyme variant]” the self-aminoacylation (biotinyl-Met-oxazolone) was 1.79, the self-aminoacylation (biotinyl-Trp-oxazolone) was 1.38 and the self-aminoacylation (biotinyl-Ile-oxazolone) was 1.72. For the same sequence, the self-aminoacylation (biotinyl-Leu-oxazolone) was 1.76, the self-aminoacylation (biotinyl-Val-oxazolone) was 1.82 and the self-aminoacylation (biotinyl-Phe-oxazolone) was 2.28.

Sequence “CAACACUUCAAGCAAUUGGUC [Fam1B.1 aminoacylation ribozyme variant]” has a self-aminoacylation (biotinyl-Met-oxazolone) of 0.866, a self-aminoacylation (biotinyl-Trp-oxazolone) of 0.958 and a self-aminoacylation (biotinyl-Ile-oxazolone) of 0.98. For the same sequence, the self-aminoacylation (biotinyl-Leu-oxazolone) was 0.775, the self-aminoacylation (biotinyl-Val-oxazolone) was 0.904 and the self-aminoacylation (biotinyl-Phe-oxazolone) was 1.42.

Sequence “AUUACCUUGGUCAUCGAGUGG [Fam2.1 aminoacylation ribozyme variant]” has a self-aminoacylation (biotinyl-Met-oxazolone) of 2.08, a self-aminoacylation (biotinyl-Trp-oxazolone) of 0.873 and a self-aminoacylation (biotinyl-Ile-oxazolone) of 1.67. The self-aminoacylation (biotinyl-Leu-oxazolone) was 2.13, the self-aminoacylation (biotinyl-Val-oxazolone) was 1.45 and the self-aminoacylation (biotinyl-Phe-oxazolone) was 1.64.

Sequence “CCACACUUCAAGCUAUCGGCC [Fam1B.1 aminoacylation ribozyme variant]” has a self-aminoacylation (biotinyl-Met-oxazolone) of 1.7, a self-aminoacylation (biotinyl-Trp-oxazolone) of 1.81 and a self-aminoacylation (biotinyl-Ile-oxazolone) of 1.62. For the same sequence, the self-aminoacylation (biotinyl-Leu-oxazolone) was 1.82, the self-aminoacylation (biotinyl-Val-oxazolone) was 1.51 and the self-aminoacylation (biotinyl-Phe-oxazolone) was 0.862.

With “AACUUUGCUAAUAGUCGUAAG [Fam3.1 aminoacylation ribozyme variant]” the self-aminoacylation (biotinyl-Met-oxazolone) was 1.21, the self-aminoacylation (biotinyl-Trp-oxazolone) was 2.33 and the self-aminoacylation (biotinyl-Ile-oxazolone) was 1.44. For the same sequence, the self-aminoacylation (biotinyl-Leu-oxazolone) was 1.59, the self-aminoacylation (biotinyl-Val-oxazolone) was 1.28 and the self-aminoacylation (biotinyl-Phe-oxazolone) was 3.97.

Work on “CCACACUGCAAGCACUCGGUC [Fam1B.1 aminoacylation ribozyme variant]” yielded a self-aminoacylation (biotinyl-Met-oxazolone) of 1.54, a self-aminoacylation (biotinyl-Trp-oxazolone) of 1.47 and a self-aminoacylation (biotinyl-Ile-oxazolone) of 1.63. The self-aminoacylation (biotinyl-Leu-oxazolone) was 1.39, the self-aminoacylation (biotinyl-Val-oxazolone) was 1.66 and the self-aminoacylation (biotinyl-Phe-oxazolone) was 2.57.

In the case of “AUUACCAUGGUUAUCGAGUGA [Fam2.1 aminoacylation ribozyme variant]”, the self-aminoacylation (biotinyl-Met-oxazolone) is reported as 9.62, the self-aminoacylation (biotinyl-Trp-oxazolone) is reported as 12.2 and the self-aminoacylation (biotinyl-Ile-oxazolone) is reported as 4.38. For the same sequence, the self-aminoacylation (biotinyl-Leu-oxazolone) was 10.6, the self-aminoacylation (biotinyl-Val-oxazolone) was 4.79 and the self-aminoacylation (biotinyl-Phe-oxazolone) was 69.6.

Work on “AUUAUCCUGGUCAUGGAGUGA [Fam2.1 aminoacylation ribozyme variant]” yielded a self-aminoacylation (biotinyl-Met-oxazolone) of 4.22, a self-aminoacylation (biotinyl-Trp-oxazolone) of 5.21 and a self-aminoacylation (biotinyl-Ile-oxazolone) of 2.67. It also gave a self-aminoacylation (biotinyl-Leu-oxazolone) of 4.6, a self-aminoacylation (biotinyl-Val-oxazolone) of 2.6 and a self-aminoacylation (biotinyl-Phe-oxazolone) of 13.6.
